Measured values: patent US9090882B2, “Compositions and methods for enhanced amino acid levels in plants conferred by lysine and/or threonine feedback insensitive aspartate kinase proteins” (priority 2008, dated 2015)
Numbering of substitutions follows the chain as printed. Names and notes keep the numbering of the source. Where two headings read alike, the source gives them in different places.

Experiments:
[1] = tested on: E. coli lysC aspartate kinase; details: known from the literature; cited from earlier work
[2] = tested on: plants; details: expression in plants; Karchi et al. 1993, Galili et al. EP 0485970; cited from earlier work
[3] = tested on: X. bovienii aspartate kinase; experiment: Aspartate kinase enzyme assays and kinetic studies (colorimetric hydroxamate / coupled assay) with purified recombinant His-tagged AK; assay type: biochemical, Xenorhabdus bovienii; details: for Vmax Asp / Km: purified enzyme
Protocol: The chimeric plasmids containing AK or the desired mutants were transformed into E. coli BL21 (DE3) cells and transformants were selected on LB (Luria-Bertani) medium containing kanamycin (50 μg/mL). For induction of gene expression, transformants selected from single colonies were grown in 100 mL liquid LB supplemented with ampicillin or kanamycin to approximately 0.6 A600, and 0.4 mM. Isopropyl-β-thiogalactopyranoside (IPTG) (Gold Biotechnologies, St. Louis, Mo.) was added, followed by 15 hours incubation at 21° C. and 220 rpm shaking. Cells were harvested by 30 min centrifugation at 7,000×g and washed once with 20 mM Tris-HCl, 150 mM NaCl, pH 7.4. Washed cell pellets were re-suspended in 50 mM K-phosphate buffer (pH7.4, Buffer A) containing 2 mM MgCl2, 50 mM NaCl, 100 units of benzonase (Novagen, San Diego, Calif.) and protease inhibitor cocktail tablets without EDTA (1 tablet/10 mL) (Boehringer Mannheim, Germany). Cells were broken by three passages through a chilled French press cell (SLM-Aminco Spectronic Instruments), operating at 20,000 psi. The lysate was centrifuged by an ultra-centrifuge for 1 hour at 100,000×g, at 4° C. The resulting supernatant was applied to nickel+-nitrilotriacetic acid (Ni+NTA) agarose column (His-Bind resin, Qiagen) and chromatographed according to the supplier's instructions. The column was washed with 3 bed volumes of Buffer A containing 20 mM imidiazole followed by elution with 300 mM imidazole. Enzymatically active fractions of the N-terminal His-tagged […] were pooled, dialyzed against Buffer A without benzonase, and stored in 15% glycerol solution at −80° C. for use in kinetic studies. The enzyme preparation was over 95% pure as judged by Coomassie Blue-stained SDS-PAGE.
Colorimetric Hydroxamate Method. The assay mixture (final volume, 0.8 mL) contained 100 Tris-HCl, pH8.0, 40 mM hydroxylamine-KOH, pH8.0, 25 mM ATP-KOH, pH8.0, 20 mM MgCl2, L-aspartic acid, and 150 mM KCl. The reaction was initiated by addition of AK enzyme, and carried out at 37° C. for 15-30 min. The reaction was terminated by addition of 400 μL acidified ferric chloride (0.37 M FeCl3, 20% TCA, and 0.72 M HCl) and followed by the centrifugation at top speed of microcentrifuge. The formed aspartyl-hydroxamate was determined by colorimetrically at 505 nm. The biosynthetic activity was calculated based on the standard curves of L-aspartyl-hydroxamate or ε505nm.
The assay couples the conversion of ATP to ADP to the oxidation of NADH using pyruvate kinase and lactate dehydrogenase at 30° C. NADH oxidation was monitored kinetically at 340 nm. (See Wampler D E, Westhead E W. (1968), BIOCHEMISTRY 7: 1661-1670.)
Kinetic parameters were determined by measuring product formation in 100 μL reaction mixtures containing various substrate concentrations ranging from 0 to 25 mM. Controls were included for every assay. Values for Km, Vmax, and Kcat were calculated from the rate of the product formation using Michaelis-Menten equations in conjunction with the curve fitting options in the Grafit 5.0 software (Erithacus software Ltd., Horley, UK) (Table 2).

[4] = substrate ATP, read-out: Km ATP
[5] = substrate Asp, read-out: Km Asp

B1: E. coli lysC gene product: recombinant E. coli lysC aspartate kinase, control sensitive to feedback inhibition by Lys (protein, UniProt P08660 2-449, looked up)
Lysine-sensitive …: SEIVVSKFGGTSVADFDAMNRSADIVLSDANVRLVVLSASAGITNLLVALAEGLEPGERFEKLDAIRNIQFAILERLRYPNVIREEIERLLENITVLAEAAALATSPALTDELVSHGELMSTLLFVEILRERDVQAQWFDVRKVMRTNDRFGRAEPDIAALAELAALQLLPRLNEGLVITQGFIGSENKGRTTTLGRGGSDYTAALLAEALHASRVDIWTDVPGIYTTDPRVVSAAKRIDEIAFAEAAEMATFGAKVLHPATLLPAVRSDIPVFVGSSKDPRAGGTLVCNKTENPPLFRALALRRNQTLLTLHSLNMLHSRGFLAEVFGILARHNISVDLITTSEVSVALTLDTTGSTSTGDTLLTQSLLMELSALCRVEVEEGLALVALIGNDLSKACGVGKEVFGVLEPFNIRMICYGASSHNLCFLVPGEDAEQVVQKLHSNLFE
Q: With B1 as the molecule, how does the “feedback inhibition by Lys” value [1] read?
A: Its value is “sensitive to feedback inhibition by Lys”.

B2: E. coli T352I lysC gene product: E. coli feedback-insensitive (T352I) lysC aspartate kinase, control (protein, listed as Escherichia coli)
chain: MSEIVVSKFGGTSVADFDAMNRSADIVLSDANVRLVVLSASAGITNLLVALAEGLEPGERFEKLDAIRNIQFAILERLRYPNVIREEIERLLENITVLAEAAALATSPALTDELVSHGELMSTLLFVEILRERDVQAQWFDVRKVMRTNDRFGRAEPDVAALAELAALQLLPRLNDGLVITQGFIGSENKGRTTTLGRGGSDYTAALLAEALHASRVDIWTDVPGIYTTDPRVVSAAKRIDEIAFAEAAEMATFGAKVLHPATLLPAVRSDIPVFVGSSKDPRAGGTLVCNKTENPPLFRALALRRNQTLLTLHSLNMLHSRGFLAEVFGILARHNISVDLITTSEVSVALTLDTTGSTSTGDTLLTQSLLMELSALCRVEVEEGLALVALIGNDLSKACGVGKEVFGVLEPFNIRMICYGASSHNLCFLVPGEDAEQVVQKLHFNLFE
Q: What does the source list for B2?
A: feedback inhibition by Lys [1]: lysine-insensitive; increase in threonine content of the seed [2]: 6-7%

B3: X. bovienii AK T359I: Xenorhabdus bovienii aspartate kinase variant, Thr 359 replaced with Ile (protein, listed as Xenorhabdus bovienii)
chain: MCAVSSTYPQYVVAKFGGTSVADFDAMNHCADIILANADVRVVVLSASAGVTNLLVALATGCDNDKRKKCLKQIRDIQYAIIDRLNDVNVICEEIDRLLENIEMLSEAASLATSEALTDELVSHGEVMSTLLFVELLRQRNVNAEWFDIRRVMRTNDHFGRAEPDSLQLHISAVELLQPRLNNTVVITQGFIGREEKGRTTTLGRGGSDYTAALLGEALNLQRVDIWTDVPGIYTTDPRVAPTAKRIDKIAFDEAAEMATFGAKILHPATLLPAIRCGIPVFVGSSKDPQAGGTLVCDKTENPPLFRALALRRKQTLLTLHSLKMLHARGFLAEVFTLLLRHNISVDLITTSEVSVALILDTTGSTSTNGSLLTNALLTELSTLCRVEVEEDLALVAIIGNELSQAKGLGKEIFGTLESFNIRMISYGASSHNVCLLVPGQDAESVIQKLHQNLFKV
Q: With B3 as the molecule, how does the “Vmax Asp” value [3] read?
A: Its value is 0.26 μmoles · min^−1 · mg^−.

Q: And the Km [3, 4]?
A: Its Km is 1820 µM.

Q: And the Km [3, 5]?
A: The Km was 2310 µM.

B4: X. bovienii AK Wild Type: purified recombinant His-tagged wild-type Xenorhabdus bovienii aspartate kinase (encoded by SEQ ID NO: 6) (protein, listed as Xenorhabdus bovienii)
chain: B3 chain with I359T
modifications: His tag
Q: With B4 as the molecule, how does the IC50 ([3]; inhibition of the purified enzyme by lysine) read?
A: The IC50 was 140 µM.

Q: And the “Vmax Asp” value [3]?
A: The value was 0.29 μmoles · min^−1 · mg^−.

Q: What about the Km [3, 4] of the same molecule?
A: Its Km is 2560 µM.

Q: What about the Km [3, 5] of the same molecule?
A: The Km was 2730 µM.

B5: X. bovienii AK E257K/T359I: Xenorhabdus bovienii aspartate kinase double variant E257K/T359I (protein, listed as Xenorhabdus bovienii)
chain: B3 chain with E257K
Q: With B5 as the molecule, how does the “Vmax Asp” value [3] read?
A: The value was 0.24 μmoles · min^−1 · mg^−.

Q: What about the Km [3, 4] of the same molecule?
A: The Km was 1620 µM.

Q: What about the Km [3, 5] of the same molecule?
A: The Km was 3100 µM.

B6: X. bovienii AK E257K: Xenorhabdus bovienii aspartate kinase variant, Glu 257 replaced with Lys (protein, listed as Xenorhabdus bovienii)
chain: B3 chain with E257K, I359T
Q: Which “Vmax Asp” value [3] does the source give for B6 here?
A: Its value is 0.20 μmoles · min^−1 · mg^−.

Q: What about the Km [3, 4] of the same molecule?
A: Its Km is 1890 µM.

Q: What about the Km [3, 5] of the same molecule?
A: Its Km is 3060 µM.
